B1: HA-tagged human Ta1, wild type (enzyme, not shown: small tags and cut ends)
chain: MPLFFRKRKPSEEARKRLEYQMCLAKEAGADDILDISKCELSEIPFGAFATCKVLQKKVLIVHTNHLTSLLPKSCSLLSLATIKVLDLHDNQLTALPDDLGQLTALQVLNVERNQLMQLPRSIGNLTQLQTLNVKDNKLKELPDTVGELRSLRTLNISGNEIQRLPQMLAHVRTLEMLSLDASAMVYPPREVCGAGTAAILQFLCKESGLEYYPPSQYLLPILEQDGIENSRDSPDGPTDRFSREELEWQNRFSDYEKRKEQKMLEKLEFERRLELGQREHTQLLQQSSSQKDEILQTVKEEQSRLEQGLSEHQRHLDAERQRLQEQLKQTEQNISSRIQKLLQDNQRQKKSSEILKSLENERIRMEQLMSITQEETESLRRRDVASAMQQMLTESCKNRLIQMAYESQRQNLVQQACSSMAEMDERFQQILSWQQMDQNKAISQILQESAMQKAAFEALQVKKDLMHRQIRSQIKLIETELLQLTQLELKRKSLDTESLQEMISEQRWALSSLLQQLLKEKQQREEELREILTELEAKSETRQENYWLIQYQRLLNQKPLSLKLQEEGMERQLVALLEELSAEHYLPIFAHHRLSLDLLSQMSPGDLAKVGVSEAGLQHEILRRVQELLDAARIQPELKPPMGEVVTPTAPQEPPESVRPSAPPAELEVQASECVVCLEREAQMIFLNCGHVCCCQQCCQPLRTCPLCRQDIAQRLRIYHSS
B2: ΔCC-hTa1 (HA-tagged hTa1 with the coiled-coil deleted) (protein)
chain: MPLFFRKRKPSEEARKRLEYQMCLAKEAGADDILDISKCELSEIPFGAFATCKVLQKKVLIVHTNHLTSLLPKSCSLLSLATIKVLDLHDNQLTALPDDLGQLTALQVLNVERNQLMQLPRSIGNLTQLQTLNVKDNKLKELPDTVGELRSLRTLNISGNEIQRLPQMLAHVRTLEMLSLDASAMVYPPREVCGAGTAAILQFLCKESGLEYYPPSQYLLPILEQDGIENSRDSPDGPTDRFSREELEWQNRFSDYEKRKEQKMLEKLEFERRLELGQREHTQLLQQSSSQKDEILQTVKEEQSRLEQGLSEHQRHLDAERQRLQEQLKQTEQNISSRIQKLLQDNQRQKKSSEILKSLENERIRMEQLMSITQEETESLRRRDVASAMQQMLTESCKNRLIQMAYESQRQNLVQQACSSMAEMDERFQQILSWQQMDQNKAISQILQESAMQKAAFEALQVKKDLMHRQIRSQIKLEELSAEHYLPIFAHHRLSLDLLSQMSPGDLAKVGVSEAGLQHEILRRVQELLDAARIQPELKPPMGEVVTPTAPQEPPESVRPSAPPAELEVQASECVVCLEREAQMIFLNCGHVCCCQQCCQPLRTCPLCRQDIAQRLRIYHSS
B3: Ta1 ΔPTAP/PSAP (HA-tagged hTa1 with the PTAP motifs deleted) (protein)
chain: MPLFFRKRKPSEEARKRLEYQMCLAKEAGADDILDISKCELSEIPFGAFATCKVLQKKVLIVHTNHLTSLLPKSCSLLSLATIKVLDLHDNQLTALPDDLGQLTALQVLNVERNQLMQLPRSIGNLTQLQTLNVKDNKLKELPDTVGELRSLRTLNISGNEIQRLPQMLAHVRTLEMLSLDASAMVYPPREVCGAGTAAILQFLCKESGLEYYPPSQYLLPILEQDGIENSRDSPDGPTDRFSREELEWQNRFSDYEKRKEQKMLEKLEFERRLELGQREHTQLLQQSSSQKDEILQTVKEEQSRLEQGLSEHQRHLDAERQRLQEQLKQTEQNISSRIQKLLQDNQRQKKSSEILKSLENERIRMEQLMSITQEETESLRRRDVASAMQQMLTESCKNRLIQMAYESQRQNLVQQACSSMAEMDERFQQILSWQQMDQNKAISQILQESAMQKAAFEALQVKKDLMHRQIRSQIKLIETELLQLTQLELKRKSLDTESLQEMISEQRWALSSLLQQLLKEKQQREEELREILTELEAKSETRQENYWLIQYQRLLNQKPLSLKLQEEGMERQLVALLEELSAEHYLPIFAHHRLSLDLLSQMSPGDLAKVGVSEAGLQHEILRRVQELLDAARIQPELKPPMGEVVPAELEVQASECVVCLEREAQMIFLNCGHVCCCQQCCQPLRTCPLCRQDIAQRLRIYHSS

What was measured:
[1] = target: T1, Flag-tagged Tsg101, wild type (UniProt Q61187)
T1 sequence: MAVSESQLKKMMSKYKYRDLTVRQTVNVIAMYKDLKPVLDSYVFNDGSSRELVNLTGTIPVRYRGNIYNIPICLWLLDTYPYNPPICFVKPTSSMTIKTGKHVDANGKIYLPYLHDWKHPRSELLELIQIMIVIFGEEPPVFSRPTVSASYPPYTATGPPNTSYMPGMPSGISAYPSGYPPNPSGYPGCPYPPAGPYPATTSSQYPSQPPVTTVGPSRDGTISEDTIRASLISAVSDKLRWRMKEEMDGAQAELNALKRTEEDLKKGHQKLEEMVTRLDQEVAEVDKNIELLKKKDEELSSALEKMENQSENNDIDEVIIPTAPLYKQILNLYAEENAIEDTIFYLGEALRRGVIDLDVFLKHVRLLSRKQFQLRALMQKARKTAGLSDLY

[2] = target: T2, Flag-tagged Tsg101, wild type (murine) (UniProt Q61187); experiment: cell-based or functional assay
T2 sequence (looked up): T1 sequence

[3] = target: T3, endogenous Tsg101 of HEK-293T cells, Q99816
T3 chain: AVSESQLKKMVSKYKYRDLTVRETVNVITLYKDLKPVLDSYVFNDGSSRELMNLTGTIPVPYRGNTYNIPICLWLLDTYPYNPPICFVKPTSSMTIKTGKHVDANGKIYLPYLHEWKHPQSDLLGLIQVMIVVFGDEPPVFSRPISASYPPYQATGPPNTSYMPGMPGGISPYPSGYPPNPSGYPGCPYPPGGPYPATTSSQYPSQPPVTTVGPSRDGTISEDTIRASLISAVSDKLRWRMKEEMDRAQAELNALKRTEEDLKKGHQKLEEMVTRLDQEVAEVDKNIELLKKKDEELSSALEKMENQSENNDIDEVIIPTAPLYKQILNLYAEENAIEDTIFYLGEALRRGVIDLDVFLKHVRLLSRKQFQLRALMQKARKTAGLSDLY

[4] = target: T4, Flag-tagged Tsg101, wild type, Q61187
T4 chain: T1 sequence

Molecule	in vitro ubiquitylation of immunoprecipitated Tsg101 (125I-ubiquitin) [1]	HIV-1 infectivity, single-cycle infection assay [3]	also measured
H695A-Ta1 (HA-tagged)	only background ubiquitylation was observed with two RING mutants of hTa1	–	–
C675A-hTa1 (HA-tagged)	only background ubiquitylation was observed with two RING mutants of hTa1	–	–
B1	–	overexpression of hTa1 reduces infectivity by approximately 40%	decrease in GFP-Gag secretion into virus-like particles (VLPs), HEK-293T cells [2]: > 90%; HIV-1 infectivity, single-cycle infection assay [4]: when combined with an ectopic Tsg101, hTa1 exerted a significantly greater inhibitory effect; in vitro ubiquitylation of immunoprecipitated Tsg101 (125I-ubiquitin) [4]: Substantial Tsg101 ubiquitylation was observed in complexes pre-incubated with WT-hTa1
B2	–	RING or CC mutants of hTa1 potently inhibited HIV-1 infectivity even in the absence of an ectopic Tsg101	–
B3	–	mediated a relatively mild effect on viral infectivity	–

— patent US20070077628A1
